Experimental data: article PMC8213806 (Nature Communications, 2021)

B1: CSPG4^mini (human CSPG4 residues 30–764: two laminin G motifs and first two CSPG repeats) (domain or fragment)
chain: ASFFGENHLEVPVATALTDIDLQLQFSTSQPEALLLLAAGPADHLLLQLYSGRLQVRLVLGQEELRLQTPAETLLSDSIPHTVVLTVVEGWATLSVDGFLNASSAVPGAPLEVPYGLFVGGTGTLGLPYLRGTSRPLRGCLHAATLNGRSLLRPLTPDVHEGCAEEFSASDDVALGFSGPHSLAAFPAWGTQDEGTLEFTLTTQSRQAPLAFQAGGRRGDFIYVDIFEGHLRAVVEKGQGTVLLHNSVPVADGQPHEVSVHINAHRLEISVDQYPTHTSNRGVLSYLEPRGSLLLGGLDAEASRHLQEHRLGLTPEATNASLLGCMEDLSVNGQRRGLREALLTRNMAAGCRLEEEEYEDDAYGHYEAFSTLAPEAWPAMELPEPCVPEPGLPPVFANFTQLLTISPLVVAEGGTAWLEWRHVQPTLDLMEAELRKSQVLFSVTRGARHGELELDIPGAQARKMFTLLDVVNRKARFIHDGSEDTSDQLVLEVSVTARVPMPSCLRRGQTYLLPIQVNPVNDPPHIIFPHGSLMVILEHTQKPLGPEVFQAYDPDSACEGLTFQVLGTSSGLPVERRDQPGEPATEFSCRELEAGSLVYVHRGGPAQDLTFRVSDGLQASPPATLKVVAIRPAIQIHRSTGLRLAQGSAMPILPANLSVETNAVGQDVSVLFRVTGALQFGELQKQGAGGVEGAEWWATQAFHQRDVEQGRVRYLSTDPQHHAYDTVENLALEVQ
notes: source: FreeStyle HEK 293 cells, secreted, purified (Ni-NTA, Superdex-200)
B2: Repeat1-Fc (CSPG4 Repeat1, residues 410–551, fused to the N-terminus of human IgG1 Fc) (Fc fusion)
chain: ELPEPCVPEPGLPPVFANFTQLLTISPLVVAEGGTAWLEWRHVQPTLDLMEAELRKSQVLFSVTRGARHGELELDIPGAQARKMFTLLDVVNRKARFIHDGSEDTSDQLVLEVSVTARVPMPSCLRRGQTYLLPIQVNPVND
notes: also called CSPG4 decoy; source: FreeStyle HEK 293 cells, secreted, purified (Ni-NTA); not shown: Fc (human IgG1), C-terminal, kept
B3: His-tagged CSPG4 Repeat1 (residues 410–551), biotinylated (domain or fragment)
chain: B2 chain
modifications: biotinylated using EZ-Link NHS-PEG4-Biotin at pH 6.5
notes: also called His-tagged Repeat1; source: FreeStyle HEK 293 cells, secreted, purified (Ni-NTA); not shown: 8xHis, N-terminal, kept

Target: T1, TcdB1 holotoxin (VPI10463 strain), recombinant full-length, from Bacillus megaterium (Clostridioides difficile (VPI10463 …, UniProt P18177 1-2366))
T1 construct: source: Bacillus megaterium, purified as described previously
Assay: BLI
Conditions: both partners purified

Binder	binding result	Kd [nM]	koff [s⁻¹]	kon [M⁻¹ s⁻¹]
B1	binds			
B2		~15.2	~0.000108	~7060
B3	binds			
